The values below come from publication PMC5465497.

Assay [1] addresses Herceptin IgG (human). Briefly: SPR; antibody covalently coupled onto a CM5 sensor chip, Fc receptor extracellular domain injected; HBS-EP+ running buffer; room temperature; steady-state fitting model; no regeneration.
The target of assay [2] is SEED Fc-like chain, the other SEED CH3 domain (human). Briefly: non-reduced SDS-PAGE with scanning densitometry of co-expressed chains (heterodimerization assay); two Fc-like chains co-transfected at a 1:1 ratio into HEK293-EBNA cells; Protein A-purified preparation; 4-12% gel, Coomassie staining; bands below the 49-kDa marker excluded.
The target in assay [3] is Herceptin IgG (human). Briefly: SPR; antibody captured via Protein A, FcγR1a injected; room temperature; 1:1 Langmuir model with Rmax set to local; regeneration with 10 mM glycine pH 1.5. Background: Surface plasmon resonance follows binding to a sensor surface in real time, without labels.
The target of assay [4] is BEAT 2/3 (A): CH2 γ1 - BEAT CH3 (A) γ3; (B): CH2 γ1 - BEAT CH3 (B) γ1 (human). The assay can be described thus: SPR; antibody covalently coupled onto a CM5 sensor chip, FcRn injected; HBS-EP+ adjusted to pH 6; room temperature; steady-state fitting model; regeneration with HBS-EP+ pH 7.4.
Assay [5] deals with BEAT 2/3 (A): CH2 γ1 - BEAT CH3 (A) γ3; (B): CH2 γ1 - BEAT CH3 (B) γ1 D84.4Q (human). The assay is described as above.
Assay [6] deals with BEAT 2/3 (A): CH2 γ3 - BEAT CH3 (A) γ3; (B): CH2 γ1 - BEAT CH3 (B) γ1 (human). The assay is described as above.
Assay [7] deals with BEAT 2/3 (A): CH2 γ3 - BEAT CH3 (A) γ3; (B): CH2 γ1 - BEAT CH3 (B) γ1 D84.4Q (human). Described as above.
In assay [8] the target is Herceptin IgG (human). The description is as above.
For assay [9], the target named is KiH (knobs-into-holes) Fc-like chain, second engineered CH3 domain (human). Briefly: non-reduced SDS-PAGE with scanning densitometry of co-expressed chains (heterodimerization assay); two Fc-like chains co-transfected at a 1:1 ratio into HEK293-EBNA cells; Protein A-purified preparation; 4-12% gel, Coomassie staining; bands below the 49-kDa marker excluded.
The target of assay [10] is BEAT 2/3 (A): CH2 γ1 - BEAT CH3 (A) γ3; (B): CH2 γ1 - BEAT CH3 (B) γ1 (human). The assay can be described thus: SPR; antibody covalently coupled onto a CM5 sensor chip, Fc receptor extracellular domain injected; HBS-EP+ running buffer; room temperature; steady-state fitting model; no regeneration.
Assay [11] addresses BEAT 2/3 (A): CH2 γ1 - BEAT CH3 (A) γ3; (B): CH2 γ1 - BEAT CH3 (B) γ1 D84.4Q (human). The assay is described as above.
In assay [12] the target is BEAT 2/3 (A): CH2 γ3 - BEAT CH3 (A) γ3; (B): CH2 γ1 - BEAT CH3 (B) γ1 D84.4Q (human). The assay is described as above.
The target of assay [13] is MI (CH3) AG/GA Fc-like chain, GA domain (IgG1 CH3 with positions 85.1 and 86 and their set exchanged for IgA CH3 residues) (human). Briefly: non-reduced SDS-PAGE with scanning densitometry of co-expressed chains (heterodimerization assay); two Fc-like chains co-transfected at a 1:1 ratio into HEK293-EBNA cells; Protein A-purified preparation; 4-12% gel, Coomassie staining; bands below the 49-kDa marker excluded.

The Kd is a measure of binding affinity in units of concentration. Lower therefore signals tighter binding.

“FcγR2b extracellular domain (from UniProt P31994 43-217) (receptor)” registered a Kd in the assay with Herceptin IgG (human) [1] of 4270 nM.

Consider “SEED Fc-like chain, the SEED CH3 domain that has Trp 81 (domain or fragment)”, for which, in assay [2], the heterodimer content worked out at 83%.

For “FcγR1a extracellular domain (from UniProt P12314 16-292) (receptor)”, in the assay with Herceptin IgG (human) [3], the Kd was 0.138 nM.

As for “FcRn extracellular domain (with beta-2-microglobulin) (from UniProt P55899 24-297; P61769 21-119) (receptor)”, the Kd was 708 nM in assay [4]; 686 nM in assay [5]; 543 nM in assay [6]; 577 nM in [7]; 622 nM with Herceptin IgG (human) [8].

Substance “FcγR2a extracellular domain, variant H167 (from UniProt P12318 34-217) (receptor)” returned a dissociation constant Kd in the assay with Herceptin IgG (human) [1] of 2000 nM.

As for “KiH (knobs-into-holes) Fc-like chain, first engineered CH3 domain (domain or fragment)”, the heterodimer content in assay [9] came to 67%.

Turning to “FcγR3a extracellular domain, variant V176 (from UniProt P08637 17-208) (receptor)”, the Kd in [10] is 206 nM; in assay [11], 347 nM; in assay [12], 238 nM; with Herceptin IgG (human) [1], 267 nM.

On to “MI (CH3) AG/GA Fc-like chain, AG domain with Trp 81 back mutated to threonine (domain or fragment)”, for which the loss in HD rate against the heterodimer with Trp 81 in assay [13] is 4%.

With “SEED Fc-like chain with Trp 81 back mutated to threonine (domain or fragment)”, the loss in HD rate against the heterodimer with Trp 81 in assay [2] amounted to 20%.
